As a reminder, the EC50 is the concentration needed to bring the measured effect to its halfway point.

Like-named read-outs stand apart in the source and are kept apart here.

The text below walks through data of US20220127366A1 (DREN BIO, published 2022).

Test [1] concerns the target T1, human Dectin-1 (isoform not given) (human, UniProt Q9BXN2 1-247).
T1 chain: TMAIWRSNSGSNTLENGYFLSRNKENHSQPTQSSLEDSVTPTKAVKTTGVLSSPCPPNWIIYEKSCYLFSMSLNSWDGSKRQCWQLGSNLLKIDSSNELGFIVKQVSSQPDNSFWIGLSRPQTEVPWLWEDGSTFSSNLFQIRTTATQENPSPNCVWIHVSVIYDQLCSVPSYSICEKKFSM
Nature of the test: flow cytometry, human monocytes. In general terms: Flow cytometry measures light scatter and fluorescence of single cells or particles in a stream.

Test [2] deals with cynomolgus monkey Dectin-1 (cynomolgus monkey). Nature of the test: flow cytometry, cynomolgus monkey monocytes.
Test [3] addresses human Dectin-1 isoform A (human) (UniProt Q9BXN2). Nature of the test: flow cytometry, HEK-Blue hDectin-1a cells.
For test [4], the target named is human Dectin-1 isoform B (human) (UniProt Q9BXN2). Nature of the test: flow cytometry, HEK-Blue hDectin-1b cells.
Test [5] has as its target human Dectin-1 isoform A (human) (UniProt Q9BXN2). Nature of the test: flow cytometry, HEK293F hDectin-1a FL cells.
In test [6] the target is cynomolgus monkey Dectin-1 (cynomolgus monkey). In words: flow cytometry, cynomolgus monkey monocytes. This is another data set of the same source.
Test [7] has as its target T1, human Dectin-1 (isoform not given). Nature of the test: cell-based or functional assay.
Test [8] addresses T2, human CD20 (human, UniProt P11836 1-297).
T2 construct: whole, on cells; also called hCD20
T2 sequence (looked up): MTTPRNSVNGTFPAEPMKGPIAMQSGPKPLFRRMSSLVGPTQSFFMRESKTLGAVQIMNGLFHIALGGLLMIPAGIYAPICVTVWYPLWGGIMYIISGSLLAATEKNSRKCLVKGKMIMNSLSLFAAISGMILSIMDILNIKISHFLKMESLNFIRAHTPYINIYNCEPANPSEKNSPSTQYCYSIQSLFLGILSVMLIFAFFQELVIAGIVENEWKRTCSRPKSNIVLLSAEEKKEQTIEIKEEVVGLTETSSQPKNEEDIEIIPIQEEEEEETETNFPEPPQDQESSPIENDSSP
In words: flow cytometry, Raji cells.

Test [9] addresses T1, human Dectin-1 (isoform not given). In words: flow cytometry, HEK 293 cells stably overexpressing human Dectin-1.

Turning to “anti-Dectin-1 antibody 259931 (commercial)”, the EC50 in [1] amounted to 0.3 nM; in test [2], 16 nM; in [3] it was 0.8 nM; in [4], 0.9 nM; in test [5] it was 1.2 nM; in test [6], 16.5 nM.

Turning to anti-Dectin-1 antibody GE2 (commercial), the EC50 in test [1] turned out to be 1.4 nM; in [3] it was 1.9 nM; in [4] it was 12 nM; in test [5] it was 2.4 nM.

B1: anti-Dectin-1 antibody 15E2 (commercial) (antibody, V domains shown)
VH: QWQLQQSGAELARPGASWKMSCKASGYTFTTYTMHWWKQRPGQGLEWIGYINPSSGYTNYNQKFKDKATLTADKSSSTASMQLSSLTSEDSAWYYCARERAVLVPYAMDYWGQGTSVTVSS
VL: QIVLTQSPAVMSASPGEKWTITCTASSSLSYMHWFQQKPGTSPKLWLYSTSILASGVPTRFSGSGSGTSYSLTISRMEAEDAATYYCQQRSSSPFTFGSGTKLEIK
Take B1: in [7], the “IFNg secretion in PBMC (fold change to isotype), immobilized antibody” value is 1.6 fold change to isotype; the “IL6 secretion in PBMC (fold change to isotype), immobilized antibody” value was 2.6 fold change to isotype; the “TNFa secretion in PBMC (fold change to isotype), immobilized antibody” value is 3 fold change to isotype.

B2: 2M24/RSV hIgG1 (fucosylated or afucosylated) (bispecific antibody, V domains shown)
VH 1: QVQLVQSGAEVKKPGASVKVSCKSSGYTFTDYYIHWVRQAPGQGLEWMGWINPNSGDTNYAQKFQGRITMTRDTSISTAYLELSRLRSDDTAVFYCARNSGSYSFGYWGQGTLVTVSS
VL 1: DIQMTQSPSSVSASVGDRVTITCRASQGISSWLAWYQQKPGKAPKLLIFGASSLQSGVPSRFSGSGSGTDFTLTVSSLQPEDFATYYCQQAYSFPFTFGPGTKVDIE
VH 2: QVTLRESGPALVKPTQTLTLTCTFSGFSLSTSGMSVGWIRQPPGKALEWLADIWWDDKKDYNPSLKSRLTISKDTSANQVVLKVTNMDPADTATYYCARSMITNWYFDVWGAGTTVTVSS
VL 2: DIQMTQSPSTLSASVGDRVTITCKCQLSVGYMHWYQQKPGKAPKLLIYDTSKLASGVPSRFSGSGSGTAFTLTISSLQPDDFATYYCFQGSGYPFTFGGGTKLEIK
For the molecule B2, the binding result in test [8] was “no binding (tested: between 10 and 100 nM (about 60 nM))”.

B3: Fab 2M24-mSA fusion protein (Fab, V domains shown)
VH: QVQLVQSGAEVKKPGASVKVSCKSSGYTFTDYYIHWVRQAPGQGLEWMGWINPNSGDTNYAQKFQGRITMTRDTSISTAYLELSRLRSDDTAVFYCARNSGSYSFGYWGQGTLVTVSS
VL: DIQMTQSPSSVSASVGDRVTITCRASQGISSWLAWYQQKPGKAPKLLIFGASSLQSGVPSRFSGSGSGTDFTLTVSSLQPEDFATYYCQQAYSFPFTFGPGTKVDIE
notes: only the 2M24 VL is tied; also called Fab 2M24 fusion to monomeric streptavidin
B3 had an EC50 in test [9] of 1.45 nM.

B4: 2M24/RSV hIgG1 inert (bispecific antibody, V domains shown)
VH 1: QVQLVQSGAEVKKPGASVKVSCKSSGYTFTDYYIHWVRQAPGQGLEWMGWINPNSGDTNYAQKFQGRITMTRDTSISTAYLELSRLRSDDTAVFYCARNSGSYSFGYWGQGTLVTVSS
VL 1: DIQMTQSPSSVSASVGDRVTITCRASQGISSWLAWYQQKPGKAPKLLIFGASSLQSGVPSRFSGSGSGTDFTLTVSSLQPEDFATYYCQQAYSFPFTFGPGTKVDIE
VH 2: QVTLRESGPALVKPTQTLTLTCTFSGFSLSTSGMSVGWIRQPPGKALEWLADIWWDDKKDYNPSLKSRLTISKDTSANQVVLKVTNMDPADTATYYCARSMITNWYFDVWGAGTTVTVSS
VL 2: DIQMTQSPSTLSASVGDRVTITCKCQLSVGYMHWYQQKPGKAPKLLIYDTSKLASGVPSRFSGSGSGTAFTLTISSLQPDDFATYYCFQGSGYPFTFGGGTKLEIK
notes: also called 2M24/RSV with inert human IgG1 Fc
B4: the binding result in test [8] was “no binding (tested: between 10 and 100 nM (about 60 nM))”.
